In PMC12747267 (bioRxiv, 2025):

Target: the molecule itself
Test: cryo-EM structure

B1: human myosin regulatory light chain (RLC, MYL12B) (natural protein, UniProt O14950 1-172, looked up)
chain: MSSKKAKTKTTKKRPQRATSNVFAMFDQSQIQEFKEAFNMIDQNRDGFIDKEDLHDMLASLGKNPTDAYLDAMMNEAPGPINFTMFLTMFGEKLNGTDPEDVIRNAFACFDEEATGTIQEDYLRELLTTMGDRFTDEEVDELYREAPIDKKGNFNYIEFTRILKHGAKDKDD
binding result: binds
